Experimental data from EP4285935A1 (Emergence Therapeutics AG, dated 2023).

Tests used:
human Nectin-4 on cells = target: T1, human Nectin-4 on cells (human, UniProt Q96NY8 32-510); test: flow cytometry on normal differentiated human keratinocytes (NHEK), dose range 8 pM - 33 nM (FIG. 15); Ch-5A12.2 is the reference of the comparison
T1 construct: whole, on cells; also called CHO cells transfected with human Nectin-4 cDNA; Nectin-4 expressed by normal differentiated human keratinocytes (NHEK)
T1 sequence (looked up): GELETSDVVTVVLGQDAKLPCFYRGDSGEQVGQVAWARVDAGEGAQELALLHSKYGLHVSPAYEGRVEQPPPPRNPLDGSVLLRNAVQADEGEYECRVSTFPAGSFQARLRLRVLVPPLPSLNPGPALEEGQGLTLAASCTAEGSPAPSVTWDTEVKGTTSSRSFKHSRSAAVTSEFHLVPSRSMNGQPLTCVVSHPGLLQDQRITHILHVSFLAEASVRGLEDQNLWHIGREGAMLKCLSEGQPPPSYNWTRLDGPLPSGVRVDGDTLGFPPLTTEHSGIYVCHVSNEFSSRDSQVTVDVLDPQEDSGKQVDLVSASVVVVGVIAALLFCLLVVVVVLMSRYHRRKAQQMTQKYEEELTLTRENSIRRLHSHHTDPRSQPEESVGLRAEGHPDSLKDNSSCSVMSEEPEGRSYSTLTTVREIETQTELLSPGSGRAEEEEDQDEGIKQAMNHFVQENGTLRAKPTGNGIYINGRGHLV

[1] = target: T2, N-terminal Flag-tagged human Nectin-4 on transfected MDA-MB231 cells (human, UniProt Q96NY8 32-510); test: flow cytometry on MDA-MB231 cells transfected with N-terminal Flag-tagged Nectin-4, dose range 0.3 ng/mL - 5 µg/mL (FIG. 1)
T2 construct: whole, on cells; also called PVRL4; Flag-tagged Nectin-4; not shown: N-terminal Flag tag from vector p3XFLR4.C1
T2 sequence (looked up): T1 sequence (looked up)

- binding result (human Nectin-4 on cells): binds
- binding result [1]: binds
B1: Ch-5A12.2 (antibody, V domains shown)
VH: QIQLQQSGAELVKPGASVTLSCKTSGFTFNSMYISWLKQKPGQSLEWIAWIYAGTGGTRFNQKFTGKVQLTVDTSSSTAYMQFSSLTTDDSAIYYCAIRSGFVPMDYWGQGTSVTVSS
VL: SIVMTQTPKFLLVSAGDRVTITCKASQSVSNDVAWYQQKPGQSPKLLIYYASNRYTGVPDRFTGSGYGTDFTFTISTVQAEDLAVYFCQQDYSSPWTFGGGTKLEIK
notes: also called 5A12.2 mAb; Ch-5A12.2 mAb
